Results as given in IntAct's records for PubMed 17923090.

B1: Interferon alpha/beta receptor 2 (Homo sapiens), P48551 (parent)
chain: MLLSQNAFIFRSLNLVLMVYISLVFGISYDSPDYTDESCTFKISLRNFRSILSWELKNHSIVPTHYTLLYTIMSKPEDLKVVKNCANTTRSFCDLTDEWRSTHEAYVTVLEGFSGNTTLFSCSHNFWLAIDMSFEPPEFEIVGFTNHINVMVKFPSIVEEELQFDLSLVIEEQSEGIVKKHKPEIKGNMSGNFTYIIDKLIPNTNYCVSVYLEHSDEQAVIKSPLKCTLLPPGQESESAESAKIGGIITVFLIALVLTSTIVTLKWIGYICLRNSLPKVLNFHNFLAWPFPNLPPLEAMDMVEVIYINRKKKVWDYNYDDESDSDTEAAPRTSGGGYTMHGLTVRPLGQASATSTESQLIDPESEEEPDLPEVDVELPTMPKDSPQQLELLSGPCERRKSPLQDPFPEEDYSSTEGSGGRITFNVDLNSVFLRVLDDEDSDDLEAPLMLSSHLEEMVDPEDPDNVQSNHLLASGEGTQPTFPSPSSEGLWSEDAPSDQSDTSESDVDLGDGYIMR
B2: Interferon alpha/beta receptor 2 (Homo sapiens), P48551 (parent)
chain: B1 chain
partner: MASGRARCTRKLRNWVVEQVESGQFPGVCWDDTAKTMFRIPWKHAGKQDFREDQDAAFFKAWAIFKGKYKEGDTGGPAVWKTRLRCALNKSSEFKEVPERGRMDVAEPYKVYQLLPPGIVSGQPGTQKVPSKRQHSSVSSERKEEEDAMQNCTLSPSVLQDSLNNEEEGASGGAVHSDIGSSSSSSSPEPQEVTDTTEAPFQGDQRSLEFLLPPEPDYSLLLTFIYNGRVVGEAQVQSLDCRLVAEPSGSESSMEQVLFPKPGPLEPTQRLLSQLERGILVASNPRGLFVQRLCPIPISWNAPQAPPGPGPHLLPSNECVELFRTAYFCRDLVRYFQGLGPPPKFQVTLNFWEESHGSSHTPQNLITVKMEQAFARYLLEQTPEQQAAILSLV
B3: Interferon regulatory factor 9 (Homo sapiens), Q00978 (parent)
chain: B2 partner
partner: B1 chain

Variants of: B1
Details: with cbp_human CREBBP

Variant | effect of a mutation on the interaction
S364A | decreasing interaction
S384A | decreasing interaction

Variants of: B2
Details: with irf9_human IRF9, Q00978

Variant | effect of a mutation on the interaction
S400A | increasing interaction
K399A;S400A | decreasing interaction
K399A | decreasing interaction

Variants of: B3
Details: with inar2_human IFNAR2, P48551

Variant | effect of a mutation on the interaction
R292Q | decreasing interaction
